# From paper PMC6161111, “Design, Synthesis, In Vitro, and Initial In Vivo Evaluation of Heterobivalent Peptidic Ligands Targeting Both NPY(Y1)- and GRP-Receptors—An Improvement for Breast Cancer Imaging?” (Pharmaceuticals, 2018)
# *1 amine or outer side, *2 acyl side, *3 side chain or, on linkers, in order; H or OH if unused. Where a SMILES comes first, the peptide text is derived from it. Bridges are numbered along the chain shown (N, C = ends). Roman numbers before positions name the chains, in order. [ ]: non-standard residue; d: D form. The star is where a group is joined. X1 = NC(=O)[C@H](CCCCNC(=O)CCC(C(=O)O)N1CCN(CC(=O)O)CCN(CC(=O)O)CC1)NC(=O)CCOCCOCCOCCOCCNC(=O)CN(CCCNC(=O)CCOCCOCCOCCOCCNC(=O)c1ccc(C=NOCC(=O)NCCOCCOCCOCCOCCC(=O)[*:2])cc1)CCCNC(=O)CCOCCOCCOCCOCCNC(=O)c1ccc(C=NOCC(=O)[*:1])cc1; DOTA = O=C(O)CN1CCN(CC(=O)O)CCN(CC(=O)*)CCN(CC(=O)O)CC1; Nle = CCCC[C@H](N)C(=O)O
# How the values were obtained:
# [1] = Determination of radiotracer lipophilicity (logD, phosphate buffer/1-octanol); format: physicochemical; settings: phosphate buffer (0.05 M, pH 7.4) / 1-octanol, six independent experiments
# Experimental: Determination of radiotracer lipophilicity. The heterobivalent ligands (22–26) as well as the monomeric reference compounds (27 and 28) were radiolabeled with ^68Ga as described before and 2 µL of the product solution (~65 pmol of the respective radioligand) were added to a mixture of phosphate buffer (0.05 M, pH 7.4, 800 µL) and 1-octanol (800 µL) and incubated for 5 min at ambient temperature under vigorous shaking. Both phases were separated by centrifugation and 100 µL of each phase were measured for radioactivity in a gamma-counter. […] (cpm = counts per minute), cpmw = activity in the aqueous phase [cpm]. These experiments were performed six times independently.
# [2] = system: T-47D cells; assay: In vitro cell uptake (internalization) study in T-47D cells; format: cell-based, human; settings: after 4 h, % of total added activity
# Experimental: Cell culture. All cell lines were grown in suitable culture medium at 37 °C in a humidified CO2 (5%) atmosphere. The human breast cancer cell lines T-47D, MDA-MB-231 and MCF-7 were grown in Dulbecco’s Modified Eagle Medium (DMEM), supplemented with 10% (v/v) fetal calf serum (FCS) and 1% (v/v) L-Glutamine. For a high expression of the NPY(Y1) receptor on T-47D cells, the medium for this cell line was further supplemented with 0.15% (w/v) β-estradiol. The BT-474 and PC-3 cell lines were grown in RPMI-1640 medium, also supplemented with 10% (v/v) fetal calf serum (FCS) and 1% (v/v) L-Glutamine.
# Internalization studies. Cells (T-47D, MDA-MB-231, MCF-7, BT-474 and PC-3, 1.5 × 10^6 cells per well) were seeded into 6-well plates and incubated overnight at 37 °C in a humidified CO2 (5%) atmosphere. The next day, the medium was removed and the cells were washed twice with the respective medium without supplements (ice-cold, 1 mL) and incubated with 3.7–4.0 kBq (0.37–4.0 pmol) of the respective ^68Ga-radiolabeled ligand [^68Ga]22−[^68Ga]26, [^68Ga]27 or [^68Ga]28 (in 1.5 mL medium, containing 0.5% (w/v) BSA) for defined time-points of 1, 2, 3 or 4 h at 37 °C in a humidified CO2 (5%) atmosphere. A 1000-fold excess of the respective peptide (3 or 4) was used for blocking to determine the non-specific cell uptake. At each time point, the medium was removed and the cells were washed twice with the respective medium without supplements (ice-cold, 1 mL). Cells were treated twice with 1 mL glycine buffer (ice-cold, 50 mM glycine, 100 mM NaCl, pH 2.8) for 5 min at room temperature, followed by 2 mL NaOH solution (1 M) for 10 min at 37 °C. The supernatants were collected and the radioactivity measured in a gamma counter. The internalized and surface bound activity was expressed as percentage of measured to total added activity. Each data point was generated thrice in triplicates.
# [3] = system: T-47D tumor-bearing mice; assay: Ex vivo biodistribution in T-47D tumor-bearing mice; settings: mouse, in vivo
# Experimental: (§1) In vivo experiments. All animal experiments were performed in compliance with the German animal protection laws and protocols of the local committee (Regierungspräsidium Karlsruhe, approval number: 35-9185.81/G-206/15). 20, six week old female immunodeficient Fox Chase SCID (CB17/Icr-Prkdc^scid/IcrIcoCrl) mice with an average weight of 20 g were subcutaneously implanted with 17β-estradiol pellets (0.36 mg/60 days). 4 days later, the tumors were induced by subcutaneous inoculation of 5 × 10^6 T-47D cells into the left flank of the […]. After induction, the tumors were allowed to grow for 8–10 weeks and reached a diameter of about 0.5 cm. For imaging, the animals were anaesthetized with isoflurane and injected with 5.5–8.0 MBq of the respective radioligand ([^68Ga]24, [^68Ga]24a or [^68Ga]24b) into the lateral tail vein. Dynamic PET images were acquired over 90 min and CT images were obtained within further 30 min. After the end of the diagnostic scan, the animals were sacrificed, the organs were collected and measured in a gamma-counter.
# [4] = as above; settings: female, Fox Chase SCID (CB17/Icr-Prkdc^scid/IcrIcoCrl), mouse, in vivo, iv, total radioactivity
# Experimental: as §1
structure (smiles),measurement,setting,value
"CSCC[C@H](NC(=O)[C@H](CC(C)C)NC(=O)[C@H](Cc1c[nH]cn1)NC(=O)CNC(=O)[C@@H](NC(=O)[C@H](C)NC(=O)[C@H](Cc1c[nH]c2ccccc12)NC(=O)[C@H](CCC(N)=O)NC(=O)CCOCCOCCOCCOCCNC(=O)CN1CCN(CC(=O)O)CCN(CC(=O)O)CCN(CC(=O)O)CC1)C(C)C)C(N)=O [[^68Ga]27, metal not drawn, reference compound]",logD,[1],-1.86 ± 0.054
"CCCC[C@H](NC(=O)[C@H](CCCNC(=N)N)NC(=O)[C@H](Cc1c[nH]c2ccccc12)NC(=O)[C@H](CCCCNC(=O)CON=Cc1ccc(C(=O)NCCOCCOCC(=O)NCCCN(CCCNC(=O)COCCOCCNC(=O)c2ccc(C=NOCC(=O)NCCOCCOCCOCCOCCC(=O)N[C@@H](CCC(N)=O)C(=O)N[C@@H](Cc3c[nH]c4ccccc34)C(=O)N[C@@H](C)C(=O)N[C@H](C(=O)NCC(=O)N[C@@H](Cc3c[nH]cn3)C(=O)N[C@@H](CC(C)C)C(=O)N[C@@H](CCSC)C(N)=O)C(C)C)cc2)CC(=O)NCCOCCOCCOCCOCCC(=O)N[C@@H](CCCCNC(=O)CCC(C(=O)O)N2CCN(CC(=O)O)CCN(CC(=O)O)CC2)C(N)=O)cc1)NC(=O)[C@@H]1CCCN1C(=O)[C@H](CC(N)=O)NC(=O)[C@@H](N)[C@@H](C)CC)C(=O)N[C@@H](CCCNC(=N)N)C(=O)N[C@@H](Cc1ccc(O)cc1)C(N)=O (some centres unmarked) [[^68Ga]23, metal not drawn]",specific cell uptake,[2],45.8 ± 2.9%
same,logD,[1],-1.53 ± 0.109
"CCCC[C@H](NC(=O)[C@H](CCCNC(=N)N)NC(=O)[C@H](Cc1c[nH]c2ccccc12)NC(=O)[C@H](CCCCNC(=O)CN1CCN(CC(=O)O)CCN(CC(=O)O)CCN(CC(=O)O)CC1)NC(=O)[C@@H]1CCCN1C(=O)[C@H](CC(N)=O)NC(=O)[C@@H](N)[C@@H](C)CC)C(=O)N[C@@H](CCCNC(=N)N)C(=O)N[C@@H](Cc1ccc(O)cc1)C(N)=O [[^68Ga]28, metal not drawn, reference compound] (H-INPK(DOTA)WR[Nle]RY-NH2)",logD,[1],-1.98 ± 0.162
"CCCC[C@H](NC(=O)[C@H](CCCNC(=N)N)NC(=O)[C@H](Cc1c[nH]c2ccccc12)NC(=O)[C@H](CCCCNC(=O)CON=Cc1ccc(C(=O)NC2CCN(CC(=O)NC3CCN(CC(=O)NCCCN(CCCNC(=O)CN4CCC(NC(=O)CN5CCC(NC(=O)c6ccc(C=NOCC(=O)NCCOCCOCCOCCOCCC(=O)N[C@@H](CCC(N)=O)C(=O)N[C@@H](Cc7c[nH]c8ccccc78)C(=O)N[C@@H](C)C(=O)N[C@H](C(=O)NCC(=O)N[C@@H](Cc7c[nH]cn7)C(=O)N[C@@H](CC(C)C)C(=O)N[C@@H](CCSC)C(N)=O)C(C)C)cc6)CC5)CC4)CC(=O)NCCOCCOCCOCCOCCC(=O)N[C@@H](CCCCNC(=O)CCC(C(=O)O)N4CCN(CC(=O)O)CCN(CC(=O)O)CC4)C(N)=O)CC3)CC2)cc1)NC(=O)[C@@H]1CCCN1C(=O)[C@H](CC(N)=O)NC(=O)[C@@H](N)[C@@H](C)CC)C(=O)N[C@@H](CCCNC(=N)N)C(=O)N[C@@H](Cc1ccc(O)cc1)C(N)=O (some centres unmarked) [[^68Ga]26, metal not drawn]",specific cell uptake,[2],46.4 ± 2.4%
same,logD,[1],-1.52 ± 0.089
"CCCC[C@H](NC(=O)[C@H](CCCNC(=N)N)NC(=O)[C@H](Cc1c[nH]c2ccccc12)NC(=O)[C@H](CCCCNC(=O)CON=Cc1ccc(C(=O)NC2CCN(CC(=O)NCCCN(CCCNC(=O)CN3CCC(NC(=O)c4ccc(C=NOCC(=O)NCCOCCOCCOCCOCCC(=O)N[C@@H](CCC(N)=O)C(=O)N[C@@H](Cc5c[nH]c6ccccc56)C(=O)N[C@@H](C)C(=O)N[C@H](C(=O)NCC(=O)N[C@@H](Cc5c[nH]cn5)C(=O)N[C@@H](CC(C)C)C(=O)N[C@@H](CCSC)C(N)=O)C(C)C)cc4)CC3)CC(=O)NCCOCCOCCOCCOCCC(=O)N[C@@H](CCCCNC(=O)CCC(C(=O)O)N3CCN(CC(=O)O)CCN(CC(=O)O)CC3)C(N)=O)CC2)cc1)NC(=O)[C@@H]1CCCN1C(=O)[C@H](CC(N)=O)NC(=O)[C@@H](N)[C@@H](C)CC)C(=O)N[C@@H](CCCNC(=N)N)C(=O)N[C@@H](Cc1ccc(O)cc1)C(N)=O (some centres unmarked) [[^68Ga]25, metal not drawn]",specific cell uptake,[2],48.2 ± 2.8%
same,logD,[1],-1.55 ± 0.114
"CCCC[C@H](NC(=O)[C@H](CCCCNC(=O)CON=Cc1ccc(C(=O)NCCOCCOCCOCCOCCC(=O)NCCCN(CCCNC(=O)CCOCCOCCOCCOCCNC(=O)c2ccc(C=NOCC(=O)NCCOCCOCCOCCOCCC(=O)N[C@@H](CCC(N)=O)C(=O)N[C@@H](Cc3c[nH]c4ccccc34)C(=O)N[C@@H](C)C(=O)N[C@H](C(=O)NCC(=O)N[C@@H](Cc3c[nH]cn3)C(=O)N[C@@H](CC(C)C)C(=O)N[C@@H](CCSC)C(N)=O)C(C)C)cc2)CC(=O)NCCOCCOCCOCCOCCC(=O)N[C@@H](CCCCNC(=O)CCC(C(=O)O)N2CCN(CC(=O)O)CCN(CC(=O)O)CC2)C(N)=O)cc1)NC(=O)[C@H](CC(N)=O)NC(=O)[C@H](Cc1ccc(O)cc1)NC(=O)[C@@H]1CCCN1)C(=O)N[C@@H](CCCNC(=N)N)C(=O)N[C@@H](CCCNC(=N)N)C(=O)N[C@@H](Cc1c[nH]c2ccccc12)C(=O)N[C@H](C(N)=O)[C@@H](C)CC (some centres unmarked) [[^68Ga]24b, metal not drawn]",adrenal glands uptake,[3],2.91 ± 1.13 ID/g in %
same,blood uptake,[3],2.02 ± 1.34 ID/g in %
same,bone uptake,[3],0.43 ± 0.23 ID/g in %
same,brain uptake,[3],0.07 ± 0.04 ID/g in %
same,heart uptake,[3],0.85 ± 0.52 ID/g in %
same,kidneys uptake,[3],43.84 ± 25.05 ID/g in %
same,large intestines uptake,[3],1.71 ± 0.69 ID/g in %
same,liver uptake,[3],16.75 ± 0.85 ID/g in %
same,lung uptake,[3],0.88 ± 0.07 ID/g in %
same,muscle uptake,[3],0.48 ± 0.40 ID/g in %
same,pancreas uptake,[3],8.30 ± 5.33 ID/g in %
same,small intestines uptake,[3],1.53 ± 0.51 ID/g in %
same,spleen uptake,[3],2.12 ± 0.49 ID/g in %
same,stomach uptake,[3],1.35 ± 0.43 ID/g in %
same,tail uptake,[3],1.64 ± 0.94 ID/g in %
same,tumor uptake,[3],1.84 ± 0.32 ID/g in %
same,tissue to tissue ratio at 130 min,[4]; tumor-to-blood ratio (T / B),0.91 ± 0.24
same,tissue to tissue ratio at 130 min,[4]; tumor-to-muscle ratio (T / M),3.83 ± 0.8
"CCCC[C@H](NC(=O)[C@H](CCCNC(=N)N)NC(=O)[C@H](Cc1c[nH]c2ccccc12)NC(=O)[C@H](CCCCNC(=O)CON=Cc1ccc(C(=O)NCCOCCOCCOCCOCCC(=O)NCCCN(CCCNC(=O)CCOCCOCCOCCOCCNC(=O)c2ccc(C=NOCC(=O)NCCOCCOCCOCCOCCC(=O)NCC(=O)N[C@@H](CC(C)C)C(=O)N[C@@H](Cc3c[nH]cn3)C(=O)N[C@H](C(=O)N[C@@H](CCSC)C(=O)N[C@@H](Cc3c[nH]c4ccccc34)C(=O)N[C@@H](CCC(N)=O)C(=O)N[C@@H](C)C(N)=O)C(C)C)cc2)CC(=O)NCCOCCOCCOCCOCCC(=O)N[C@@H](CCCCNC(=O)CCC(C(=O)O)N2CCN(CC(=O)O)CCN(CC(=O)O)CC2)C(N)=O)cc1)NC(=O)[C@@H]1CCCN1C(=O)[C@H](CC(N)=O)NC(=O)[C@@H](N)[C@@H](C)CC)C(=O)N[C@@H](CCCNC(=N)N)C(=O)N[C@@H](Cc1ccc(O)cc1)C(N)=O (some centres unmarked) [[^68Ga]24a, metal not drawn] (I: H-INPKWR[Nle]RY-NH2 / II: GLHVMWQA-NH2; linker I:4-II:N via X1)",adrenal glands uptake,[3],0.74 ± 0.40 ID/g in %
same,blood uptake,[3],0.39 ± 0.37 ID/g in %
same,bone uptake,[3],0.13 ± 0.08 ID/g in %
same,brain uptake,[3],0.03 ± 0.02 ID/g in %
same,heart uptake,[3],0.18 ± 0.14 ID/g in %
same,kidneys uptake,[3],29.72 ± 10.33 ID/g in %
same,large intestines uptake,[3],0.24 ± 0.19 ID/g in %
same,liver uptake,[3],5.54 ± 0.31 ID/g in %
same,lung uptake,[3],0.28 ± 0.04 ID/g in %
same,muscle uptake,[3],0.26 ± 0.40 ID/g in %
same,pancreas uptake,[3],0.15 ± 0.08 ID/g in %
same,small intestines uptake,[3],0.43 ± 0.37 ID/g in %
same,spleen uptake,[3],0.49 ± 0.14 ID/g in %
same,stomach uptake,[3],0.39 ± 0.41 ID/g in %
same,tail uptake,[3],0.46 ± 0.41 ID/g in %
same,tumor uptake,[3],0.21 ± 0.15 ID/g in %
same,tissue to tissue ratio at 130 min,[4]; tumor-to-blood ratio (T / B),0.5 ± 0.47
same,tissue to tissue ratio at 130 min,[4]; tumor-to-muscle ratio (T / M),1.07 ± 1.14
